From patent US20120253013A1

Target: HGF receptor c-Met on uninfected HUVECs (human) (UniProt P08581)
Test: cell-based or functional assay

UniProt P08581, sequence (P08581 25-1390): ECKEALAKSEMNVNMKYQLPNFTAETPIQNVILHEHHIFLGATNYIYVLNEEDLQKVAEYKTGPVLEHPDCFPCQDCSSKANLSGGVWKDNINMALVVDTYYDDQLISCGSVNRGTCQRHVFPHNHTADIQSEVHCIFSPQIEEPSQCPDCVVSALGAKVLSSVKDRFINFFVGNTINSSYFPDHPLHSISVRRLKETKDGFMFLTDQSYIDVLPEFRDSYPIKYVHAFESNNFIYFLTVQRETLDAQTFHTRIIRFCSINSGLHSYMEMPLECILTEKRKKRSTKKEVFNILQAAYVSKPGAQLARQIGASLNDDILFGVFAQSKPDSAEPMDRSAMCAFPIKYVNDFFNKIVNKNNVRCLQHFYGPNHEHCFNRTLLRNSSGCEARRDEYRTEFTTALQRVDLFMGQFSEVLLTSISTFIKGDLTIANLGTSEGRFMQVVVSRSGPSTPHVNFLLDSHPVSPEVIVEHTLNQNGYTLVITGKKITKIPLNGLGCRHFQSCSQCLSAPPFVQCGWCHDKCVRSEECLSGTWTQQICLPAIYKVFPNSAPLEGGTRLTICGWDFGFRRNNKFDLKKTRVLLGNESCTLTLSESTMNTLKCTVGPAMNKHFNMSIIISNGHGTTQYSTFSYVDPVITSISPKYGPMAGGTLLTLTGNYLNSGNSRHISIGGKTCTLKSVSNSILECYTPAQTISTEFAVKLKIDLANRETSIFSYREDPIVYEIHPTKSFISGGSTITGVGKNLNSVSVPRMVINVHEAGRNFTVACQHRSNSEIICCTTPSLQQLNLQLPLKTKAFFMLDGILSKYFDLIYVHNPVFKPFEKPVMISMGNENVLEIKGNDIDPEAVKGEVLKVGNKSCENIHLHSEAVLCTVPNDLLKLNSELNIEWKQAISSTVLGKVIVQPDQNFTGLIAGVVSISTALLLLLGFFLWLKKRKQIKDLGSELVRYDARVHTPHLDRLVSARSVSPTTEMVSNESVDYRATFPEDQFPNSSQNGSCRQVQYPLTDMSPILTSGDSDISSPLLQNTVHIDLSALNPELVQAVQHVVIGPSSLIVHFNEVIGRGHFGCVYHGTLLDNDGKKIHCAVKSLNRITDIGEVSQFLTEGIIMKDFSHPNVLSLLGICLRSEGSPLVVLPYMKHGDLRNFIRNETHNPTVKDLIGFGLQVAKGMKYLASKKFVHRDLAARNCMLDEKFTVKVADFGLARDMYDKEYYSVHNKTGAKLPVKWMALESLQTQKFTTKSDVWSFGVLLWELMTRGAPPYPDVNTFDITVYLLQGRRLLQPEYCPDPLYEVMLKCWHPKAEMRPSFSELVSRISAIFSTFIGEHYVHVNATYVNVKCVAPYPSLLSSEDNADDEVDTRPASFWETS

Substance: hepatocyte growth factor (HGF) in conditioned medium from Ad-Egr3 infected HUVECs (from UniProt P14210 32-728) (ligand)
- c-Met receptor phosphorylation on tyrosine 1234/1235 (PathScan Phospho-Met Sandwich ELISA), fold increase against Ad-lacZ: 1.8 fold
